# B1: unnamed (protein)
# chain 1: QVQLQQPGAELVKPGASVKMSCKASGYTFTSYNMHWVKQTPGRGLEWIGAIYPGNGDTSYNQKFKGKATLTADKSSSTAYMQLSSLTSEDSAVYYCARSTYYGGDWYFNVWGAGTTVTVSA
# chain 2: QIVLSQSPAILSASPGEKVTMTCRASSSVSYIHWFQQKPGSSPKPWIYATSNLASGVPVRFSGSGSGTSYSLTISRVEAEDAATYYCQQWTSNPPTFGGGTKLEIK
# B2: unnamed (protein)
# chain 1: EVQLVESGGGLVQPGGSLRLSCAASGFTFSSYWMSWVRQAPGKGLEWVAYIKQDGNEKYYVDSVKGRFTISRDNAKNSLYLQMNSLRAEDTAVYYCAREGILWFGDLPTFWGQGTLVTVSS
# chain 2: DIQMTQSPSSLSASVGDRVTITCRASQGISNWLAWYQQKPEKAPKSLIYAASSLQSGVPSRFSGSGSGTDFTLTISSLQPEDFATYYCQQYDSYPRTFGQGTKVEIK
# B3: unnamed (protein)
# chain 1: QVQLVQSGAEVKKPGASVKVSCKASGHIFSNYWIQWVRQAPGQGLEWMGEILPGSGHTEYTENFKDRVTMTRDTSTSTVYMELSSLRSEDTAVYYCARYFFGSSPNWYFDVWGQGTLVTVSS
# chain 2: DIQMTQSPSSLSASVGDRVTITCGASENIYGALNWYQQKPGKAPKLLIYGATNLADGVPSRFSGSGSGTDFTLTISSLQPEDFATYYCQNVLNTPLTFGQGTKVEIK
# B4: unnamed (protein)
# chain 1: QVQLVESGGGVVQPGRSLRLSCTASGFTFKNYAMHWVRQAPAKGLEWVATISYDGRNIQYADSVKGRFTFSRDNSQDTLYLQLNSLRPEDTAVYYCARPVRSRWLQLGLEDAFHIWGQGTMVTVSS
# chain 2: AIRMTQSPSSFSASTGDRVTITCRASQDIRNYVAWYQQKSGKAPKFLIYAASTLQSGVPSRFSGSGSGTDFTLTINSLQSEDFATYYCQQYYNSPPTFGQGTRVEIT
# B5: unnamed (protein)
# chain 1: EVQLVESGGGLVQPGGSLRLSCAASGFTFSNYGMSWVRQAPGKGLEWVASISSGGGSTYYPDNVKGRFTISRDDAKNSLYLQMNSLRAEDTAVYYCARGGAGIDYWGQGTLVTVSS
# chain 2: DIQMTQSPSSLSASVGDRVTITCKSIQTLLYSSNQKNYLAWFQQKPGKAPKLLIYWASIRKSGVPSRFSGSGSGTDFTLTISSLQPEDLATYYCQQYYSYPLTFGGGTKLEIK
# B6: unnamed (protein)
# chain 1: EVQLLESGGGLVQPGGSLRLSCAASGFTFSSYIMMWVRQAPGKGLEWVSSIYPSGGITFYADTVKGRFTISRDNSKNTLYLQMNSLRAEDTAVYYCARIKLGTVTTVDYWGQGTLVTVSS
# chain 2: QSALTQPASVSGSPGQSITISCTGTSSDVGGYNYVSWYQQHPGKAPKLMIYDVSNRPSGVSNRFSGSKSGNTASLTISGLQAEDEADYYCSSYTSSSTRVFGTGTKVTVL
# B7: unnamed (protein)
# chain 1: EVQLVQSGAEVKKPGASVKVSCKASGYTFTDYNMHWVRQAPGQGLEWMGEINPNSGGAGYNQKFKGRVTMTTDTSTSTAYMELRSLRSDDTAVYYCARLGYDDIYDDWYFDVWGQGTTVTVSS
# chain 2: DIQMTQSPSSLSASVGDRVTITCRASQDISNYLNWYQQKPGKAPKLLIYYTSRLLSGVPSRFSGSGSGTDFTLTISSLQPEDFATYYCQQGDTLPYTFGGGTKVEIK
# B8: unnamed (protein)
# chain 1: QVQLVQSGSELKKPGASVKVSCKASGYTFTNYGMNWVRQAPGQGLEWMGWINTYTGEPTYADDFTGRFVFSLDTSVSTAYLQISSLKAEDTAVYYCARNPINYYGINYEGYVMDYWGQGTLVTVSS
# chain 2: not shown
# B9: unnamed (protein)
# chain 1: EVQLVESGGGLVQPGGSLRLSCAASGYDFTHYGMNWVRQAPGKGLEWVGWINTYTGEPTYAADFKRRFTFSLDTSKSTAYLQMNSLRAEDTAVYYCAKYPYYYGTSHWYFDVWGQGTLVTVSS
# chain 2: DIQLTQSPSSLSASVGDRVTITCSASQDISNYLNWYQQKPGKAPKVLIYFTSSLHSGVPSRFSGSGSGTDFTLTISSLQPEDFATYYCQQYSTVPWTFGQGTKVEIK
# B10: unnamed (protein)
# chain 1: EVQLVQSGGGLVKPGGSLRLSCAASGFTFSSFAMHWVRQAPGKGLEWISVIDTRGATYYADSVKGRFTISRDNAKNSLYLQMNSLRAEDTAVYYCARLGNFYYGMDVWGQGTTVTVSS
# chain 2: EIVLTQSPGTLSVSPGERATLSCRASQSIGSSLHWYQQKPGQAPRLLIKYASQSLSGIPDRFSGSGSGTDFTLTISRLEPEDFAVYYCHQSSRLPHTFGQGTKVEIK
# B11: unnamed (protein)
# chain 1: EVQLVESGGGLVQPGGSLRLSCAASGYEFSRSWMNWVRQAPGKGLEWVGRIYPGDGDTNYSGKFKGRFTISADTSKNTAYLQMNSLRAEDTAVYYCARDGSSWDWYFDVWGQGTLVTVSS
# chain 2: DIQMTQSPSSLSASVGDRVTITCRSSQSIVHSVGNTFLEWYQQKPGKAPKLLIYKVSNRFSGVPSRFSGSGSGTDFTLTISSLQPEDFATYYCFQGSQFPYTFGQGTKVEIK
# B12: unnamed (protein)
# chain 1: QVQLVQSGAEVKKPGASVKVSCKASGYYTEAYYIHWVRQAPGQGLEWMGRIDPATGNTKYAPRLQDRVTMTRDTSTSTVYMELSSLRSEDTAVYYCASLYSLPVYWGQGTTVTVSS
# chain 2: DVVMTQSPLSLPVTLGQPASISCKSSQSLLYSDAKTYLNWFQQRPGQSPRRLIYQISRLDPGVPDRFSGSGSGTDFTLKISRVEAEDVGVYYCLQGTHYPVLFGQGTRLEIK
# B13: unnamed (protein)
# chain 1: QVQLVQSGAEVKKPGASVKVSCKASGYIFSNYWIQWVRQAPGQGLEWMGEILPGSGSTEYAQKFQGRVTMTADTSTSTAYMELSSLRSEDTAVYYCARYFFGSSPNWYFVWGQGT
# chain 2: DIQMTQSPSLSASVGDRVTITCGASENIYGALNWYQRKPGKAPKLLIYGATNLADGVPSRFSGSGSGTDYTLTISSLQPEDFATYYCQNVLNTPLTFGQGTKVEIK
# B14: unnamed (protein)
# chain 1: EVQLVESGGGLVQPGGSLRLSCAVSGLSLTSNSVNWIRQAPGKGLEWVGLIWSNGDTDYNSAIKSRFTISRDTSKSTVYLQMNSLRAEDTAVYYCAREYYGYFDYWGQGTLVTVSS
# chain 2: DIQMTQSPSSLSASVGDRVTITCLASEGISSYLAWYQQKPGKAPKLLIYGANSLQTGVPSRFSGSGSATDYTLTISSLQPEDFATYYCQQSYKFPNTFGQGTKVEVK
# B15: unnamed (protein)
# chain 1: QVQLVQSGAEVKKPGSSVKVSCKASGYTFTDQTIHWMRQAPGQGLEWIGYIYPRDDSPKYNENFKGKVTITADKSTSTAYMELSSLRSEDTAVYYCAIPDRSGYAWFIYWGQGTLVTVSS
# chain 2: DIQMTQSPSSLSASVGDRVTITCKASRDVAIAVAWYQQKPGKVPKLLIYWASTRHTGVPSRFSGSGSRTDFTLTISSLQPEDVADYFCHQYSSYPFTFGSGTKLEIK
# B16: unnamed (protein)
# chain 1: EVQLVESGGGLVQPGGSLRLSCAASGYTFSSYWIEWVRQAPGKGLEWIGEILPGGGDTNYNEIFKGRATFSADTSKNTAYLQMNSLRAEDTAVYYCTRRVPIRLDYWGQGTLVTVSS
# chain 2: DIQLTQSPSSLSASVGDRVTITCKASQSVDYEGDSFLNWYQQKPGKAPKLLIYAASNLESGVPSRFSGSGSGTDFTLTISSLQPEDFATYYCQQSNEDPLTFGQGTKVEIK
# B17: unnamed (protein)
# chain 1: QVQLQQSGAELVKPGASVKLSCKASGYTFTSYDINWVRQRPEQGLEWIGWIFPGDGSTKYNEKFKGKATLTTDKSSSTAYMQLSRLTSEDSAVYFCAREDYYDNSYYFDYWGQGTTLTVSS
# chain 2: DIQMTQTTSSLSASLGDRVTISCRASQDISNYLNWYQQKPDGTVKLLIYYTSRLHSGVPSRFSGSGSGTDYSLTISNLEQEDIATYFCQQGNTLPWTFGGGTKLEIK
# B18: unnamed (protein)
# chain 1: QVQLVQSGAEVKKPGASVKVSCKASGYTFTNYGMNWVRQAPGQGLEWMGWINTYTGEPTYADDFKGRVTMTTDTSTSTAYMELRSLRSDDTAVYYCARIGDSSPSDYWGQGTLVTVSS
# chain 2: EIVMTQSPATLSVSPGERATLSCKASQSVSNDVVWYQQKPGQAPRLLIYYASNRYTGIPARFSGSGSGTEFTLTISSLQSEDFAVYYCQQDYTSPWTFGQGTKLEIK
# B19: unnamed (protein)
# chain 1: QVQLQQSGTVLARPGASVKMSCKASGYSFTRYWMHWIKQRPGQGLEWIGAIYPGNSDTSYNQKFEGKAKLTAVTSASTAYMELSSLTHEDSAVYYCSRDYGYYFDFWGQGTTLTVSS
# chain 2: QIVSTQSPAIMSASPGEKVTMTCSASSSRSYMQWYQQKPGTSPKRWIYDTSKLASGVPARFSGSGSGTSYSLTISSMEAEDAATYYCHQRSSYTFGGGTKLEIK
# B20: unnamed (protein)
# chain 1: EVQLVQSGGGLVKPGGSLRLSCAASGFTFSSYSMNWVRQAPGKGLEWVSSISSSSSYIYYADSVKGRFTISRDNAKNSLYLQMNSLRAEDTAVYYCARVTDAFDIWGQGTMVTVSS
# chain 2: DIQMTQSPSSVSASIGDRVTITCRASQGIDNWLGWYQQKPGKAPKLLIYDASNLDTGVPSRFSGSGSGTYFTLTISSLQAEDFAVYFCQQAKAFPPTFGGGTKVDIK
# Assay: patients with anti-drug antibodies; higher = more immunogenic
row,Protein,patients with anti-drug antibodies [%]
1,B1,11
2,B2,0
3,B3,0.2
4,B4,0
5,B5,0
6,B6,5
7,B7,18.1
8,B8,9.4
9,B9,3.5
10,B10,0
11,B11,1.4
12,B12,0
13,B13,0
14,B14,5
15,B15,24
16,B16,2.6
17,B17,85
18,B18,0
19,B19,1.5
20,B20,4.1

# From the FLAb antibody collection
